The values that follow come from article PMC8703697.

Experiment [1] concerns the target human thrombin (FIIa) (human) (UniProt P00734).
Experiment [2] shares this target. The source holds these as a separate data set.
Experiment [3] has the same target. The source holds these as a separate data set.
For experiment [4], the target named is human factor XIa (human) (UniProt P03951).
In experiment [5] the target is human factor XIIa (human) (UniProt P00748).
Experiment [6] deals with human plasma Kallikrein (human) (UniProt P03952).
The target of experiment [7] is human thrombin (FIIa) (human) (UniProt P00734). This is another data set of the same source.

Sequence of UniProt P03951 (P03951 19-387, chain 1 of 2): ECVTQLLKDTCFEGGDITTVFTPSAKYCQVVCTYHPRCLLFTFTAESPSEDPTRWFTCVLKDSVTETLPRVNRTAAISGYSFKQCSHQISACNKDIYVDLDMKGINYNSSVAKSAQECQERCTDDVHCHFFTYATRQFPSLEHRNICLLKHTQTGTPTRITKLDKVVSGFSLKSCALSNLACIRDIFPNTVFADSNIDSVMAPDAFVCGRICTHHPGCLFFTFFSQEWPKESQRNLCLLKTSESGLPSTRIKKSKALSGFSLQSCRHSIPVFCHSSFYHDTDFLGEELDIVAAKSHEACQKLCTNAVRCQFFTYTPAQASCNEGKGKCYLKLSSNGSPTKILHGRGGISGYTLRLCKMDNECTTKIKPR
Sequence of UniProt P03951 (P03951 388-625, chain 2 of 2): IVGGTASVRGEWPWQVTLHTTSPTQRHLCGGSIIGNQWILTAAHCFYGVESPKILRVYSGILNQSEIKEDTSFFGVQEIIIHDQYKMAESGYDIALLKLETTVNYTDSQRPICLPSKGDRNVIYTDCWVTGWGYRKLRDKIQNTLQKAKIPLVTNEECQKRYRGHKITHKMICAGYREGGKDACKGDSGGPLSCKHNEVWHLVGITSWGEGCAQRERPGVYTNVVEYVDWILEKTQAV
Sequence of UniProt P03952 (P03952 20-390, chain 1 of 2): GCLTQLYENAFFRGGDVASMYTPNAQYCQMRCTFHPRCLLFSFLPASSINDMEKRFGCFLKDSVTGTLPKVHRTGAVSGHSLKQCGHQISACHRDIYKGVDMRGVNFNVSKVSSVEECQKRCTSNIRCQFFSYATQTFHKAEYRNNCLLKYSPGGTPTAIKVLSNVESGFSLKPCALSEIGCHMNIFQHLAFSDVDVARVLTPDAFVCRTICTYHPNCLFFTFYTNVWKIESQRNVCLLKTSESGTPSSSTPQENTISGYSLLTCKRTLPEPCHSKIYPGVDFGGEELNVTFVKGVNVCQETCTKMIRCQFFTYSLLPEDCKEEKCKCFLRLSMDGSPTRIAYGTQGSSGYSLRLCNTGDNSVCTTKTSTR
Sequence of UniProt P03952 (P03952 391-638, chain 2 of 2): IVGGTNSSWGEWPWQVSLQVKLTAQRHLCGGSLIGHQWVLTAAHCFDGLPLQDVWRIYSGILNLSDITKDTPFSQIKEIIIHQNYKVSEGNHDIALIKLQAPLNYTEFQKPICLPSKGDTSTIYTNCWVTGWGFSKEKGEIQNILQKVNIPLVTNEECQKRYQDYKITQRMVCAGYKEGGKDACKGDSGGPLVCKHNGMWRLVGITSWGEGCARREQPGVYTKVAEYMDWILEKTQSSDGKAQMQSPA
Sequence of UniProt P00748 (P00748 20-372, chain 1 of 2): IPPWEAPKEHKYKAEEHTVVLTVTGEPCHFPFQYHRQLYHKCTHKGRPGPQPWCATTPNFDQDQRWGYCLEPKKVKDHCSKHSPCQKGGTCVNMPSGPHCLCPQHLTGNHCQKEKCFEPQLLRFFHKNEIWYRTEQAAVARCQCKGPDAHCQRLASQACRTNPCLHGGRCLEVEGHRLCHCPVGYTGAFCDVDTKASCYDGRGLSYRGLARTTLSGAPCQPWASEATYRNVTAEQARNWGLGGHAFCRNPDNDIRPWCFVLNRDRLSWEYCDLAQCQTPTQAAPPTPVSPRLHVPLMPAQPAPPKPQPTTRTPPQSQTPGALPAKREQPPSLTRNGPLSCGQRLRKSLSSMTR
Sequence of UniProt P00748 (P00748 373-615, chain 2 of 2): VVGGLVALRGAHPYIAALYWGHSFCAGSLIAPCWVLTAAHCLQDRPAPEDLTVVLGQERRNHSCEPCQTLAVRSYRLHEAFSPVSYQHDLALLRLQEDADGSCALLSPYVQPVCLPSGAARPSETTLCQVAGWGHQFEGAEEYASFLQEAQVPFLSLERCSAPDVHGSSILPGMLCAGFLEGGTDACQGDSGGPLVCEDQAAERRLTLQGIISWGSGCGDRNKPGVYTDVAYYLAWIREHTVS

In experiment [1], “recombinant Dromaserpin (rDromaserpin) (natural protein)” came in with a reduction of thrombin-induced aggregation of washed human platelets; 10 µM rDromaserpin pre-incubated 10 min at 37 °C with thrombin of 88.2%. The residual activity of thrombin (2U) with 0.2 µM rDromaserpin and heparin from 0 to 7.2 µM (48.11% without heparin, 12.5% at 2.4 µM heparin, less acceleration from 5.6 µM) in experiment [2] was determined as 48.1%. This substance also yielded a decrease of thrombin (2U) catalytic activity on S-2238 with 1 µM and 5 µM rDromaserpin (87% and 89%), 15 min pre-incubation at 37 °C in experiment [3] of 89%. The inhibition of FXIa (3.7 nM) activity (BIOPHEN kit) with 1 µM and 5 µM rDromaserpin (no effect at 1 µM, ~48% at 5 µM) in experiment [4] worked out at 48%. The same substance returned an inhibition of FXIIa (15 nM) activity on S-2302 with 1 µM and 5 µM rDromaserpin (no effect at 1 µM, ~29% at 5 µM) in experiment [5] of 29%. In experiment [6], the decrease of Kallikrein (10 nM) catalytic activity on S-2302 with 1 µM and 5 µM rDromaserpin (~30% and ~76%) was determined as 76%. This substance showed a residual activity of thrombin (2U) on the chromogenic substrate S-2238 with rDromaserpin from 0.02 to 1 µM; IC50 in experiment [7] of 0.16 µM.
